Holding throughout (test): SPOT array
Assay [1] addresses T1, Boi1 SH3 (BOI1_YEAST), P38041.
T1 chain: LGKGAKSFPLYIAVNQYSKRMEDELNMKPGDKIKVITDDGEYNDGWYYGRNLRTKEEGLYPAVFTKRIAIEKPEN

The target in assay [2] is T2, Yhr016c SH3 (YSC84_YEAST), P32793.
T2 chain: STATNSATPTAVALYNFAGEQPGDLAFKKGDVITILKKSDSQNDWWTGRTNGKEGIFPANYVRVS

Assay [3] addresses T3, Boi2 SH3 (BOI2_YEAST), P39969.
T3 chain: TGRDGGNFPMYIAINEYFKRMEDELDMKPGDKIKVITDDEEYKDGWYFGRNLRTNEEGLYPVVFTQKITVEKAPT

Assay [4] has as its target T4, Yfr024 SH3 (LSB3_YEAST), P43603.
T4 chain: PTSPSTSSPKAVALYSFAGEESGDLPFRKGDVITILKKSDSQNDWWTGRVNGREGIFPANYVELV

Assay [5] concerns the target T5, Myo5 SH3 (MYO5_YEAST), Q04439.
T5 chain: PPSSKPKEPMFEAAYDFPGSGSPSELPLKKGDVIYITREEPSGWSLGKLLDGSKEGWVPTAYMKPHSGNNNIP

The target of assay [6] is Sho1 SH3 (SHO1_YEAST), P40073.
Sho1 SH3 (SHO1_YEAST), P40073, sequence (P40073 295-366): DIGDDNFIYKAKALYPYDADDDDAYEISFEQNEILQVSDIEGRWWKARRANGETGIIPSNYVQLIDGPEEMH
Assay [7] has as its target T6, Rvs167 SH3 (RV167_YEAST), P39743.
T6 chain: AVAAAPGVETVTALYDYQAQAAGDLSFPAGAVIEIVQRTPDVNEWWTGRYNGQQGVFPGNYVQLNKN

The text below walks through data of publication PMC314469, “Protein Interaction Networks by Proteome Peptide Scanning” (PLoS Biology, 2004).

With FLLKKMFPAPPLPT [YDL172C 130-143], the normalised SPOT signal, Boehringer light units (BLU); mean over the file's lines of this peptide in assay [1] was 235; in assay [2] it was 40.3; in assay [3] it was 27.9; in assay [4], 132; in assay [5] it was 23700; in assay [6] it was 149. Besides, in assay [7], the normalised SPOT signal, Boehringer light units (BLU); mean over the file's lines of this peptide stood at 52.4.

On to FGTAKILPEEPSNT [YDR490C 268-281], for which the normalised SPOT signal, Boehringer light units (BLU); mean over the file's lines of this peptide in assay [1] was determined as 35.5; in assay [2] it was 30.3; in assay [3] it was 7.7; in assay [4], 0.1; in assay [5], 153; in assay [6], 183. The molecule also gave a normalised SPOT signal, Boehringer light units (BLU); mean over the file's lines of this peptide in assay [7] of 23.2.

For the molecule FHDPKFIPNKPYRQ [YGR019W 335-348], the normalised SPOT signal, Boehringer light units (BLU); mean over the file's lines of this peptide in assay [1] was found to be 518; in assay [2], 113; in assay [3] it was 16.3; in assay [4] it was 498; in assay [5], 300; in assay [6], 122. The normalised SPOT signal, Boehringer light units (BLU); mean over the file's lines of this peptide in assay [7] amounted to 28.7.

For the molecule FLHSKKIPEVPQTD [YGR281W 89-102], the normalised SPOT signal, Boehringer light units (BLU); mean over the file's lines of this peptide in assay [1] came out at 37.9; in assay [2], 25.6; in assay [3], 8.2; in assay [4], 15.3; in assay [5] it was 288; in assay [6] it was 1190. The normalised SPOT signal, Boehringer light units (BLU); mean over the file's lines of this peptide in assay [7] was determined as 15.3.

Consider FIKNKAKPLIPIEL [YJL201W 254-267], for which the normalised SPOT signal, Boehringer light units (BLU); mean over the file's lines of this peptide in assay [1] came to 700; in assay [2], 72; in assay [3] it was 10.9; in assay [4], 146; in assay [5], 656; in assay [6], 410. The molecule further gave a normalised SPOT signal, Boehringer light units (BLU); mean over the file's lines of this peptide in assay [7] of 952.

Regarding FLQDRVIPIFPHYP [YMR283C 55-68], the normalised SPOT signal, Boehringer light units (BLU); mean over the file's lines of this peptide in assay [1] was 102; in assay [2] it was 26.6; in assay [3] it was 1.2; in assay [4], 173; in assay [5] it was 261; in assay [6] it was 4.9. Further, in assay [7], the normalised SPOT signal, Boehringer light units (BLU); mean over the file's lines of this peptide is 72.9.

For the molecule FNGDRLVPTLPTVS [YPR095C 191-204], the normalised SPOT signal, Boehringer light units (BLU); mean over the file's lines of this peptide in assay [1] was 132; in assay [2], 750; in assay [3], 190; in assay [4] it was 2210; in assay [5], 161; in assay [6] it was 40. The normalised SPOT signal, Boehringer light units (BLU); mean over the file's lines of this peptide in assay [7] is 2290.

Take FKVYRWNPDEPSAK [YLL041C 36-49]: the normalised SPOT signal, Boehringer light units (BLU); mean over the file's lines of this peptide in assay [1] was found to be 892; in assay [2], 29.3; in assay [3] it was 28.9; in assay [4], 154; in assay [5], 99; in assay [6], 75.1. For the same molecule, the normalised SPOT signal, Boehringer light units (BLU); mean over the file's lines of this peptide in assay [7] came out at 99.4.

Consider FHPEKLTPYTPMTG [YHR204W 260-273], for which the normalised SPOT signal, Boehringer light units (BLU); mean over the file's lines of this peptide in assay [1] worked out at 95.4; in assay [2] it was 42; in assay [3], 19.5; in assay [4], 45.9; in assay [5], 96.5; in assay [6], 25.1. For the same molecule, the normalised SPOT signal, Boehringer light units (BLU); mean over the file's lines of this peptide in assay [7] came to 12.7.

Turning to FGSNKNNPVPPELT [YIL125W 149-162], the normalised SPOT signal, Boehringer light units (BLU); mean over the file's lines of this peptide in assay [1] was found to be 58.8; in assay [2] it was 37.5; in assay [3], 13.4; in assay [4], 70; in assay [5], 172; in assay [6], 30.7. In assay [7], this molecule returned a normalised SPOT signal, Boehringer light units (BLU); mean over the file's lines of this peptide of 27.1.

On to FFYRRDIPDVPITT [YDR310C 827-840], for which the normalised SPOT signal, Boehringer light units (BLU); mean over the file's lines of this peptide was 15400 in assay [1]; 362 in assay [2]; 33.9 in assay [3]; 838 in assay [4]; 138 in assay [5]; 839 in assay [6]. Besides, in assay [7], the normalised SPOT signal, Boehringer light units (BLU); mean over the file's lines of this peptide stood at 253.
